Measured values taken from paper PMC5669894 (2017).
Where two headings read alike, the source gives them in different places.

Key:
[1] = biological target: T1, C-terminal SH3 domain of the growth factor receptor-bound protein 2 (Grb2) (UniProt P62993 158-211)
[2] = biological target: T1, C-terminal SH3 domain of the growth …; remark: listed apart in the source
[3] = biological target: T1, C-terminal SH3 domain of the growth …; remark: listed apart in the source

T1 sequence (P62993 156-215): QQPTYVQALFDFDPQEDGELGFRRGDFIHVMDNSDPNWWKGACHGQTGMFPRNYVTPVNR

SRGSEIQPPAVNRNLKPDRKAK [Gab2 503-524 peptide, variant P512A]
koff [1]: 90 s⁻¹

SRGSEIQPPPVNRNLKADRKAK [Gab2 503-524 peptide, variant P519A]
koff [2]: 250 s⁻¹

SRGSEIQAPPVNRNLKPDRKAK [Gab2 503-524 peptide, variant P510A]
koff [3]: 100 s⁻¹
